Target: prefusion conformation-stabilized SARS-CoV-2 spike ectodomain (S2Pecto) protein (SARS-CoV-2) (UniProt P0DTC2)
Test: ELISA on coated S2Pecto

In the case of “rCR3022 (recombinant form of the cross-reactive SARS-CoV SRBD mAb CR3022) (antibody)”, the EC50 was 0.0102 µg/mL.

From patent US20230122364A1
